In US20220332804A1 (CSL INNOVATION, published 2022) one finds Fold diff data, which are given here for 2 molecules.

One experiment has as its target T1, human C2 E267A (human, UniProt P06681 21-752).
T1 sequence: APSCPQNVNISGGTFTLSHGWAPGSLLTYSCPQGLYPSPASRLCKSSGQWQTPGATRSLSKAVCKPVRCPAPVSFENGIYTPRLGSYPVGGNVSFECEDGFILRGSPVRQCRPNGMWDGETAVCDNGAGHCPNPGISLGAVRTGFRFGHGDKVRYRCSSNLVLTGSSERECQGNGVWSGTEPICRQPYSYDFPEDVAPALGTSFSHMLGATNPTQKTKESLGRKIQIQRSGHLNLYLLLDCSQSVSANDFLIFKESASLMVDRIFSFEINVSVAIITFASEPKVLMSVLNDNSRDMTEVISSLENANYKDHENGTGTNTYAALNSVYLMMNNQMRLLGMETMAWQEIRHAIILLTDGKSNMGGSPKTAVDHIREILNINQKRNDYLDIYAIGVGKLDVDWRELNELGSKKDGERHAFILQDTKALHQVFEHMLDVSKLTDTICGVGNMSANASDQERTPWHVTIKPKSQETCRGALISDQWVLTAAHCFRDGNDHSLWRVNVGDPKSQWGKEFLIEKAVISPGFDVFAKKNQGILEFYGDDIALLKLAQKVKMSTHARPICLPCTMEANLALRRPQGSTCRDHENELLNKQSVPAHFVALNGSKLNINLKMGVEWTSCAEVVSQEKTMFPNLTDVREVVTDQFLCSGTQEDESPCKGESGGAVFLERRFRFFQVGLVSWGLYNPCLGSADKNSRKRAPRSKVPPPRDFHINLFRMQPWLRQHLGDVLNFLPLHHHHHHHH
As to the kind of experiment: SPR; KD relative to WT C2.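 Note: biacore SPR at 37 °C, anti-C2 mAbs captured on an anti-human IgG chip, alanine or serine C2 surface mutants tested, KD from 1:1 fit compared with wild-type C2.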 Background: SPR reads the build-up and loss of mass on a sensor chip optically.

For a further experiment, the target named is T2, human C2 L439A (human, UniProt P06681 21-752).
T2 sequence: T1 sequence with A247E, L419A
As to the kind of experiment: SPR; KD relative to WT C2.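 Note: biacore SPR at 37 °C, anti-C2 mAbs captured on an anti-human IgG chip, alanine or serine C2 surface mutants tested, KD from 1:1 fit compared with wild-type C2.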

The target in another experiment is T3, human C2 G707A (human, UniProt P06681 21-752).
T3 sequence: T1 sequence with A247E, G687A
Put plainly: SPR, KD relative to WT C2.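 Note: biacore SPR at 37 °C, anti-C2 mAbs captured via immobilised goat anti-human IgG, C2 alanine or serine surface mutants as analytes, 1:1 model fitted, double-referenced sensograms.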

The target of a further experiment is T4, human C2 N327A (human, UniProt P06681 21-752).
T4 sequence: T1 sequence with A247E, N307A
As to the kind of experiment: SPR, KD relative to WT C2.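 Note: biacore SPR at 37 °C, anti-C2 mAbs captured via immobilised goat anti-human IgG, C2 alanine or serine surface mutants as analytes, 1:1 model fitted, double-referenced sensograms.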

Changes are numbered by the printed parent chain.

B1: RF16-214 (antibody, V domains shown)
VH: EVQLLESGGGLVQPGGSLRLSCAASGFTFSWYQMMWVRQAPGKGLEWVSRIYPSGGGTAYADSVKGRFTISRDNSKNTLYLQMNSLRAEDTAVYYCARDAGYGDNWGQGTLVTVSS
VL: QSALTQPPSVSVSPGQTASITCSGDKLGEKYASWYQQKAGQSPVMVIYQDRKRPSGIPERFSGSNSGNTATLTISGTQAMDEADYYCQAWDTRAVVFGGGTKLTVLG
For the molecule B1, the Fold diff with human C2 E267A was 1 fold; in the experiment with human C2 L439A, 42 fold.

B2: RF16-226 (antibody, human IgG4 S228P, lambda)
heavy: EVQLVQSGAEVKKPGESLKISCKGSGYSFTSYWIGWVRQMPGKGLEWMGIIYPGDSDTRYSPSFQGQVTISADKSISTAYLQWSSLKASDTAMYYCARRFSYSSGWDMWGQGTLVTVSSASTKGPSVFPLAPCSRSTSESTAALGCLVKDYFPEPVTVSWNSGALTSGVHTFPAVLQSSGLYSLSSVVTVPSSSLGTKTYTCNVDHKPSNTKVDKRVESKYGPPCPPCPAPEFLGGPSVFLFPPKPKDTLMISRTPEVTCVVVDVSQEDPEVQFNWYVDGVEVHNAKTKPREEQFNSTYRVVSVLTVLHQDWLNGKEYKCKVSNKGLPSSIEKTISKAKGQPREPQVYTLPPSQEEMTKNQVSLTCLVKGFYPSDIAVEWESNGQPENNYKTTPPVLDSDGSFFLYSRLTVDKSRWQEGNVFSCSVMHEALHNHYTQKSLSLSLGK
light: SYELTQPPSVSVSPGQTARITCSGDALTSKYVAWYQQKSGLAPLLVIYEDTRRPSGIPAKFSGSSSGSVATLTISGAHGDDEADYYCYSTDASGHQRVFGGGTKLTVLSQPKAAPSVTLFPPSSEELQANKATLVCLISDFYPGAVTVAWKADGSPVKAGVETTKPSKQSNNKYAASSYLSLTPEQWKSHRSYSCQVTHEGSTVEKTVAPTECS
notes: pH-dependent anti-C2 antibody from a phage display library; also called WT
As for B2, the results for the Fold diff with human C2 G707A and with human C2 N327A were 2 fold and 7 fold, respectively.
